The record followed here is paper doi:10.1101/2025.11.19.685371.

The target in the assay is pre-formed Aβ oligomers (Aβ42) (UniProt P05067). In words: fluorescence correlation spectroscopy.

In turn, “pre-formed Aβ oligomers (Aβ42) (from UniProt P05067 672-713) (complex)” registered a fraction of fluorescently labeled Aβ in oligomers of 59%.
